{"source": "the nanobody polyreactivity screen of Harvey et al. (2022)", "data": [{"experiment": "yeast display, Sf9 membrane polyspecificity reagent, FACS + sequencing; frameworks hold sequencing errors", "how_it_was_run": "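A nanobody's polyreactivity label depends on the gate it was sorted from. Yeast display cells were stained with 10% biotinylated, detergent-solubilized Sf9 membrane reagent for 1 hour at 4 °C, enriched on streptavidin microbeads and sorted by FACS. The low and high (top ~1%) gates were set on anti-HA fluorescence for expression and streptavidin fluorescence for reagent binding.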", "values": [{"sequence": "QVQLEESGGGLVQAGGSLRLRCAASGRTFHAYVMGWYRQAPGKERELVADISSGGDTYADSVKGRFTISRDNAKNTVYLQMNSLKPEDSAVYYCAVDLIQDESGYWGQGTQVNVSS", "polyreactivity (PSR sort gate)": "low polyreactivity"}, {"sequence": "QVQLEESGGGLVQAGGSLRLSCAASGFIFGYYAMGSYRQAPGKERELVAAISKSGGRTRYADSVKGRFTISRDNAKNTVYLQMNSLKPVDTAVYYCATYDPARSTQGYDYWGQGTQVTVSS", "polyreactivity (PSR sort gate)": "high polyreactivity"}, {"sequence": "QVQLEESGGGLVQAGGSLRLSCAASGFIIHLYGMGWYRQAPGKERELVAAISSGGRTYYADSVKGRFTISRDNAKNTVDLQMNSMIPEVTAVSYSAVFVAYLYSYYYWGQGTQVTVSS", "polyreactivity (PSR sort gate)": "low polyreactivity"}, {"sequence": "QVQLEESGGGLVQAGGSLRLSCAASGFIVYYYAMGWYRQAPGKERELVAAISSGDRTYYADSVKGRFTISRDNAKNTVYLQMNSLKREDTAVYYCNALSRNTQLYDYWGQGTQVTVSS", "polyreactivity (PSR sort gate)": "high polyreactivity"}, {"sequence": "QVQLEESGGGLVQAGGSLRLSCAASGFTFDANAMGWYRQAPGKERELVAAISSGGGSTYYADSVKGRFTISRDNPKNTVYLQMNSLKPEDTAVYYCAKVYLVYKSYPYDYWGLGTQVTVSS", "polyreactivity (PSR sort gate)": "high polyreactivity"}, {"sequence": "QVQLEESGGGLVQAGGSLRLSCAASGFTFDVYAMGWYRQAPGKERELVAAIDSGGSTNYADSVKGRFTISRDNAKNTVYLQMNSLKPEDTAVYYCAVRYWKTLSHFSYDYWGQGTQVTVSS", "polyreactivity (PSR sort gate)": "low polyreactivity"}, {"sequence": "QVQLEESGGGLVQAGGSLRLSCAASGFTLPANGMGWYRQAPGKERELVAAISFIAGSTYYADSVKGRFTISRDNAKNTVYLQMNSLKPEDTAVYYCSTQFPPSTIYDYWGQGTQVTVSS", "polyreactivity (PSR sort gate)": "low polyreactivity"}, {"sequence": "QVQLEESGGGLVQAGGSLRLSCAASGGILDTYAMGWYRPAPWKETELVAANTSGCNTNYADSVKGRFTISRDNAKNTVYLQMISLKQEDTEVYYCNLVTWYYVFRPWEYDYCGQGTQVTVSS", "polyreactivity (PSR sort gate)": "low polyreactivity"}, {"sequence": "QVQLEESGGGLVQAGGSLRLSCAASGGNFPVNAIGWYRQAPGKERELVATITYDGGNTYYADSVKGRFTISRDNAKNTVYLQMNSLKPEDTAVYYCAARTPQRSEWTKYGYWGQGTLVTVSS", "polyreactivity (PSR sort gate)": "low polyreactivity"}, {"sequence": "QVQLEESGGGLVQAGGSLRLSCAASGGTFDYYAMGWYRQAPRKERELVAVINWSGGRTYYADSVKGRFTISRDNAKNTVYLQMNSLKPEDTAVYYCAAQRPPGQTWNRDYWGQGTQVTVSS", "polyreactivity (PSR sort gate)": "high polyreactivity"}, {"sequence": "QVQLEESGGGLVQAGGSLRLSCAASGIIFATYAMGWYRQAPGKDRELVAAISSGGRTYYADSVKGRFTISRDNAKNTVYLQMNSLKPEDTAVYYCAAKSGGRSSLYNYWGQGTQVNVSS", "polyreactivity (PSR sort gate)": "high polyreactivity"}, {"sequence": "QVQLEESGGGLVQAGGSLRLSCAASGIIFITYAMGWYRQAPGKEREMVAAITNSGGGTYYADSVKGRFTISRDNAKNTVYLQLNSLKPEDTAVYYCAARKTAYGYRYDYWGQGTQVTVSS", "polyreactivity (PSR sort gate)": "high polyreactivity"}, {"sequence": "QVQLEESGGGLVQAGGSLRLSCAASGIIFPRNAMGWYRQAPGKERELVAAITNTGSTKYADSVKGRFTISRDNAKNSVYLHMNSLKPEDTAVYYCAKELGSVPSPSLYDYWGQGTQVTVSS", "polyreactivity (PSR sort gate)": "low polyreactivity"}, {"sequence": "QVQLEESGGGLVQAGGSLRLSCAASGIIFTVYAMGWYRQATGTERELVAAITSSGGRTYYADSVKGRFTISRDNAKNTVYLQMNSLKPEDTAVYYCAARLPGYVRKYDYWGQGTQVTVSS", "polyreactivity (PSR sort gate)": "high polyreactivity"}, {"sequence": "QVQLEESGGGLVQAGGSLRLSCAASGIIFWYNAMGGSRQAPGKETELVAAISRGGGNTYADSVKGRFTISRDNAKNTVYLQMKSLKEVDTAVYYCAAKRSGYRFNTRWFRLPKYDYWGQGNQVTVSS", "polyreactivity (PSR sort gate)": "low polyreactivity"}, {"sequence": "QVQLEESGGGLVQAGGSLRLSCAASGITLGYYAMGWYRPAPGKERELVAAITWSGTSTYYADSVKGRFTISRDNAKNTVYLQMNSLKPEDTADYYCAAGFISQYQERGYWGQGTQVTVSS", "polyreactivity (PSR sort gate)": "low polyreactivity"}, {"sequence": "QVQLEESGGGLVQAGGSLRLSCAASGLIFGHNAMGWYRQAPGKERELVAAISRSGTSTYYADSVKGRFTISRDNAKNTVYLQMNSLKPEDNAVYYCAAENYYTAGGSGPIYRRVYWGQGTQVTVSS", "polyreactivity (PSR sort gate)": "low polyreactivity"}, {"sequence": "QVQLEESGGGLVQAGGSLRLSCAASGLIFIVYAMGWYRQAPGKERELVAAISFSGGSTYYADSVKGRFTISRDNAKNTVYLQMNSLKPEDTAVYYCAARARYTRRGRNYDYWGQGTQVTVSS", "polyreactivity (PSR sort gate)": "high polyreactivity"}, {"sequence": "QVQLEESGGGLVQAGGSLRLSCAASGLIFRYYVMGWYRQAPGKERELVAGITSSGGSTYYADSVKGRFTISRDNAKNTVYLQMNSLKPEDTAVYYCNKGGISGRDYWGQGTQVTVSS", "polyreactivity (PSR sort gate)": "high polyreactivity"}, {"sequence": "QVQLEESGGGLVQAGGSLRLSCAASGLIFSAYAMGWYRQAPGKERELVAAIRTGGSTYYADSVKGRFTFSRDNAKNTVYLQMNSLKPVDTAVYYCAASQKGYFYYNVYYWGQGTQVTVSS", "polyreactivity (PSR sort gate)": "high polyreactivity"}, {"sequence": "QVQLEESGGGLVQAGGSLRLSCAASGLIIRAYAMGWSRQAPGKERELVAAITSSSGSTYYADSVKGRFTISRDNGKNSVYLQMNSLNPEDTAVYYCNAYSTFGWYDYWGQGTQVTVSS", "polyreactivity (PSR sort gate)": "low polyreactivity"}, {"sequence": "QVQLEESGGGLVQAGGSLRLSCAASGLISVWYVMGWYRQAPGKERELVAAIRYGGGRTYYADSVKGRFTISRDNAKNTVYLQMNSLKPEDTAVYYCNARPYRGTYGYWGQGTQVTVSS", "polyreactivity (PSR sort gate)": "high polyreactivity"}, {"sequence": "QVQLEESGGGLVQAGGSLRLSCAASGLTFAQNAMGWYRQAPGKEREMVAAITSSGGRTYYADSVKGRFTISRDNANNTVYLQMNSLKPEDTAVYDCNVRYYRYGYTYGYWGQGTQVTVSS", "polyreactivity (PSR sort gate)": "high polyreactivity"}, {"sequence": "QVQLEESGGGLVQAGGSLRLSCAASGNIFFVYDMGWYRQAPGKERELVAAISWSGGSTYADSVKGRFTISRDNAKNTVYLQMNSLKPEDTAVYYCAAARYAYKHAFEYWGQGTQVTVSS", "polyreactivity (PSR sort gate)": "low polyreactivity"}, {"sequence": "QVQLEESGGGLVQAGGSLRLSCAASGNIFSLNGMGRYRQAPGKEREFVAAITWSVGSTYYADSVKGRFSISRDNAKKTVYLQMNSLKPEDTAVYYCAATVSDLYKNEYYYWGQGTQVTVSS", "polyreactivity (PSR sort gate)": "low polyreactivity"}, {"sequence": "QVQLEESGGGLVQAGGSLRLSCAASGNIFVSYAMGWYRQAPGKERELVAAISKSGGSTYYADSVKGRFTISRDNAKNTVYLQMNSLKPEDTAVYYCAARWYNRVKYQKYNYWGQGTQVTVSS", "polyreactivity (PSR sort gate)": "high polyreactivity"}, {"sequence": "QVQLEESGGGLVQAGGSLRLSCAASGNTLGPYAMGWYRQATGKERELVAAITWSGGITDYADYVKGRFTISRDNAKNTVYLQMNSLKPEDTAVYYCNSGPSLGIFQGTSVGLRYDYWGQGTQVTLSS", "polyreactivity (PSR sort gate)": "low polyreactivity"}, {"sequence": "QVQLEESGGGLVQAGGSLRLSCAASGRIFGYYPMGWYRQATGKERELVAGISRSGGSTYYADSVKGRFTISRDNAKNTVFLQMISLKPEDTAVYYCAKRVSYYGRYRPYDYWGQGTQVTVSS", "polyreactivity (PSR sort gate)": "high polyreactivity"}, {"sequence": "QVQLEESGGGLVQAGGSLRLSCAASGRIFPYYPMGWYRQAPGKETELVATISGGGSTYYADSVKGRFTISRDNAKNTFYLQMNSLKPEDTAVYYCSARSWLRWASTPQWYRYEYWGQGTQVTVSS", "polyreactivity (PSR sort gate)": "low polyreactivity"}, {"sequence": "QVQLEESGGGLVQAGGSLRLSCAASGRIFRPNAMGWYRQAPGKERELVAAISSGGSTYYADSVKGRFTISRDNAKNTVYLQMNSLKPEDTAVYYCAARSRGYDIRYGYWGQGTQVTVSS", "polyreactivity (PSR sort gate)": "high polyreactivity"}, {"sequence": "QVQLEESGGGLVQAGGSLRLSCAASGRIFSSYAMGWYRQAPGKERELVAAISSSGGRTYYADSVKGRFTISRDNAKNSVYLQMNSLKPEDTAVYYCARVTTGGYEYWGQGTQVTVSS", "polyreactivity (PSR sort gate)": "high polyreactivity"}, {"sequence": "QVQLEESGGGLVQAGGSLRLSCAASGRIFWWYGMGWYREAPGKERELVASITYSGVSTYYADSVKGRFTISRDNAKNTVYLQMNSLTPEDTAVYYCAADRSRYFSYKYDYWGQGTQVTVSS", "polyreactivity (PSR sort gate)": "high polyreactivity"}, {"sequence": "QVQLEESGGGLVQAGGSLRLSCAASGRIFYRYAMGWYRQAPGKERELVAAISWSGGSTNYADSVRGRFTISRDNAKNTVYLQMNSLKPEDTAVYYCAAKYRSIRESATYYYWGQGTQVTVSS", "polyreactivity (PSR sort gate)": "high polyreactivity"}, {"sequence": "QVQLEESGGGLVQAGGSLRLSCAASGRIHVYTMGWSRQAPGKERELVATITWSGTSTNYADSVKGRFTISRDNAKNTVYFQMNSLKPEDTAVYYCAADISGVLSVSNVRGFDYWGQGTQVTVSS", "polyreactivity (PSR sort gate)": "low polyreactivity"}, {"sequence": "QVQLEESGGGLVQAGGSLRLSCAASGRNFTYNTMGWYRQAPGKERELVAAITSGGSTYYADSVKGRFTSSRDNAKNTVYLQMNSLKPEDTAVYYCAKRSWAYTDYFVSEYYWGQGTQVTVSS", "polyreactivity (PSR sort gate)": "high polyreactivity"}, {"sequence": "QVQLEESGGGLVQAGGSLRLSCAASGRNFYYNAIGWYRQAPGKERELVATITRAGGTYYADSVKGRFTISRDNAKNTVYLQMNSLKPEDTAVYYCAKRHPIVDDYKGDYWGQGTQVTVSS", "polyreactivity (PSR sort gate)": "low polyreactivity"}, {"sequence": "QVQLEESGGGLVQAGGSLRLSCAASGRNISRNAMGGYRQPPGKERELVAAITQSGTSTYYADSVKGRFTLSRDNAKNTVYLQMKSLIPEDTAVYYCNAYRQYRYDYWGQGSQVTVSS", "polyreactivity (PSR sort gate)": "low polyreactivity"}, {"sequence": "QVQLEESGGGLVQAGGSLRLSCAASGRTFKLNAMGWYRQAPGKERELVAAISRNGGSTYYADSVKGRFTISRDNAKNTVYLQMNSLKPEDTAVYYCAAVRHGVSLAGYYWGQGTQVTVSS", "polyreactivity (PSR sort gate)": "high polyreactivity"}, {"sequence": "QVQLEESGGGLVQAGGSLRLSCAASGRTFYIYVMGWYRPAPGKERELVASITKRVGGTFYADSVKGRFTISGDNAKNTVYLQMNSLKPEDTAVYYCNARARKSIRVGGYNYWGQGTQVTVSS", "polyreactivity (PSR sort gate)": "high polyreactivity"}, {"sequence": "QVQLEESGGGLVQAGGSLRLSCAASGRTFYPNAMGWYRQAPGKERELVAAITRSGGRTYYADSVKGRFTISRDNAYYTVYLQMNSLKPEDSAVYYCNADLYYLYYKYEYWGQGTQVTVSS", "polyreactivity (PSR sort gate)": "low polyreactivity"}, {"sequence": "QVQLEESGGGLVQAGGSLRLSCAASGSIFFSYAMGWYRQAPGKERELVAAISSGGSTYYADSVKGRFTISRDNAKNTVYLQMNSLKPEDTAVYYCAARGYRLVPVDFYYWGQGTQVTVSS", "polyreactivity (PSR sort gate)": "low polyreactivity"}, {"sequence": "QVQLEESGGGLVQAGGSLRLSCAASGSIFGFYMGWDRQAPRKEREMVAAISGSGGNTYYADSVKGRFTISRDNAKNTVYLQMNSQKPEDNAVYYCAARGYVWNIGRYYWGQGTQVTVSW", "polyreactivity (PSR sort gate)": "high polyreactivity"}, {"sequence": "QVQLEESGGGLVQAGGSLRLSCAASGSIFHYYTMGWYRQAPGKERELVAAITSSGGSTYYADSVKGRFTISRDNAKNTVYLQMNSLKPEDTAVYYCNKVRYRGYLYVPIYVGYNYWGQGTQVTVSS", "polyreactivity (PSR sort gate)": "high polyreactivity"}]}]}
